Results from US5854216A, “Marker for growth hormone-releasing factor receptors” (Universite de Montreal, priority 1996, dated 1998).
Square brackets hold non-standard residues; d marks the D form. Peptide text beside a SMILES is read from it.

Molecular target: T1, GRF receptor of rat adenopituitary (rat, UniProt Q02644-2)
T1 sequence: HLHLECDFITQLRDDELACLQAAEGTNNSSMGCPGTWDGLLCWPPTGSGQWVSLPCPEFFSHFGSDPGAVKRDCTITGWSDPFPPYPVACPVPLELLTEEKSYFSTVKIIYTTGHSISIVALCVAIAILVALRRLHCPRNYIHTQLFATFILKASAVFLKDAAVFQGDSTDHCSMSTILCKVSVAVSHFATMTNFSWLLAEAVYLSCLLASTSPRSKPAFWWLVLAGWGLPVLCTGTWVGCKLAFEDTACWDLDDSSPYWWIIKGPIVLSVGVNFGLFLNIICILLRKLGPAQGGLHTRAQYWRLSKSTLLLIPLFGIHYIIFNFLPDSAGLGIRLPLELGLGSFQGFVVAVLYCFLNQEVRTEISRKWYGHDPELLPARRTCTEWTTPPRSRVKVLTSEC
Assay: displacement of 125I-Tyr10 hGRF(1-44)NH2 from rat anterior pituitary homogenate
Settings: not given

IC50 [nM] | Relative affinity (%) against hGRF(1-29)NH2 [%] | Compound
197 | 1.3 | npa^3 analogue of hGRF(1-29)NH2 (Table 7, number 5) (from UniProt P01286) (peptide)
 | 14 | npa0 analogue of hGRF(1-29)NH2 (Table 7, number 2) (from UniProt P01286) (peptide)
27.7 | 10 | npa^5 analogue of hGRF(1-29)NH2 (Table 7, number 7) (from UniProt P01286) (peptide)
 | 490 | D-Ala^2,D-Tyr^10,Lys^22 ! hGRF(1-29)NH2 (from UniProt P01286) (peptide)
4.43 | 60 | 4'-nitro-phenylalanine^10 !hGRF(1-29)NH2 (from UniProt P01286) (peptide)
54.1 | 5 | npa^8 analogue of hGRF(1-29)NH2 (Table 7, number 10) (from UniProt P01286) (peptide)
8.65 | 31 | npa^4 analogue of hGRF(1-29)NH2 (Table 7, number 6) (from UniProt P01286) (peptide)

Second part, the compound before the results:

Compound | IC50 [nM] | Relative affinity (%) against hGRF(1-29)NH2 [%]
D-Ala^2, Ala^8, D-Tyr^10, Ala^15, D-Lys^21, Lys^22 analogue of hGRF(1-29)NH2 (Table 11, No. 14) (from UniProt P01286) (peptide) | 0.48 | 500
His^1, bpa^9, Nle^27 analogue of hGRF(1-29)NH2 (Table 7, number 17) (from UniProt P01286) (peptide) | 4.4 | 61
D-Ala^2,D-Tyr^10, D-Lys^21 ! hGRF(1-29)NH2 (from UniProt P01286) (peptide) | 11.6 | 21
npa^2 analogue of hGRF(1-29)NH2 (Table 7, number 4) (from UniProt P01286) (peptide) | 751 | 0.3
octanoyl^30,Cys^31 ! hGRF(1-29)NH2 (from UniProt P01286) (peptide) |  | 35
4'-nitro-phenylanalylalanine^9 !hGRF(1-29)NH2 (from UniProt P01286) (peptide) | 9.97 | 27
D-Ala^2,D-Tyr^10 ! hGRF(1-29)NH2 (from UniProt P01286) (peptide) | 9.65 | 25
bpa^0 analogue of hGRF(1-29)NH2 (Table 7, number 13) (from UniProt P01286) (peptide) | 34.5 | 8
4'-benzoyl-phenylalyl^10 !hGRF(1-29)NH2 (from UniProt P01286) (peptide) | 5.77 | 45
bpa^9 analogue of hGRF(1-29)NH2 (Table 7, number 15) (from UniProt P01286) (peptide) | 28.4 | 9
npa^7 analogue of hGRF(1-29)NH2 (Table 7, number 9) (from UniProt P01286) (peptide) | 33.7 | 7.9
npa^1 analogue of hGRF(1-29)NH2 (Table 7, number 3) (from UniProt P01286) (peptide) | 376 | 7
bpa^4 analogue of hGRF(1-29)NH2 (Table 7, number 14) (from UniProt P01286) (peptide) | 64.7 | 4
D-Ala^2, Ala^8, Ala^15, Lys^22 analogue of hGRF(1-29)NH2 (Table 11, No. 13) (from UniProt P01286) (peptide) |  | 1330
D-Ala^2, D-Tyr^10,D-Ala^15,Lys^22 ! hGRF(1-29)NH2 (from UniProt P01286) (peptide) |  | 104
npa^6 analogue of hGRF(1-29)NH2 (Table 7, number 8) (from UniProt P01286) (peptide) | 30.9 | 8.6

Molecular target: T2, GRF receptors ([^125 I-Tyr^10 ]hGRF(1-44)NH2 binding sites in rat adenopituitary) (Rattus norvegicus, UniProt Q02644)
T2 construct: from tissue; host or cells: rat anterior pituitary homogenate
T2 sequence (Q02644 23-423 isoform Q02644-2 limits assumed): T1 sequence
Assay: Competitive binding assay with [^125 I-Tyr^10 ]hGRF(1-44)NH2 on anterior pituitary homogenates
Settings: Table 11
Method: The binding of [^125 I-Tyr^10 ]hGRF(1-44)NH2 was performed on anterior pituitary homogenates as previously described (Gaudreau P. et al., J. Biol. Chem., 1992, 35:1864-1869). Briefly, anterior pituitaries (pit.) were dissected out, rinsed and homogenized for 8 sec with a Micro Ultrasonic Cell Disrupter™, in ice-cold 50 mM Tris-HCl buffer, pH 7.4, containing 5 mM MgCl2 and 5 mM EDTA (1 pit./0.5 ml). These homogenates were used immediately. Competition studies were performed using 35-50 pM [^125 I-Tyr^10 ]hGRF(1-44)NH2 as radio-ligand,50 μl of homogenate (70 to 75 μg of protein), and increasing concentrations of Nε-CF-[Lys^31 ]hGRF or other GRF analogues (0-1000 nM) or with 2.4 μM rGRF(1-29)NH2 for determination of non-specific binding, in a total volume of 300 μl of Tris-HCl buffer, pH 7.4, containing 5 mM EDTA, 5 mM MgCl2 and 0.42% BSA. Incubations were carried out at 23° C. for 60 min and stopped by centrifugation (12,000 g, 5 min, at 4° C.). The radioactivity content in the pellet was measured by gamma counting. The affinity of hGRF(1-29)NH2 was tested in each experiment to assess the validity of the assay and determine the relative affinity of the analogues. […] The Hill values indicate that all these peptides bind to the high and low affinity GRF binding sites found in the anterior pituitary.

Hill coef. | Compound
0.53 ± 0.06 | CC[C@H](C)[C@H](NC(=O)[C@H](C)NC(=O)[C@H](CC(=O)O)NC(=O)[C@@H](C)NC(=O)[C@@H](N)Cc1ccc(O)cc1)C(=O)N[C@@H](Cc1ccccc1)C(=O)N[C@H](C(=O)N[C@@H](C)C(=O)N[C@@H](CO)C(=O)N[C@@H](Cc1ccc(O)cc1)C(=O)N[C@@H](CCCNC(=N)N)C(=O)N[C@@H](CCCCN)C(=O)N[C@H](C(=O)N[C@@H](CC(C)C)C(=O)N[C@@H](C)C(=O)N[C@@H](CCC(N)=O)C(=O)N[C@@H](CC(C)C)C(=O)N[C@@H](CO)C(=O)N[C@@H](C)C(=O)N[C@@H](CCCNC(=N)N)C(=O)N[C@@H](CCCCN)C(=O)N[C@@H](CCCCN)C(=O)N[C@@H](CC(C)C)C(=O)N[C@@H](CCC(N)=O)C(=O)N[C@@H](CC(=O)O)C(=O)N[C@H](C(=O)N[C@@H](CCSC)C(=O)N[C@@H](CO)C(=O)N[C@@H](CCCNC(=N)N)C(N)=O)[C@@H](C)CC)C(C)C)[C@@H](C)O [D-Ala^2, Ala^8, Ala^15, Lys^22] (H-Y[dA]DAIFTASYRKVLAQLSARKKLQDIMSR-NH2; N-terminus assumed)

Same assay, conditions: Table 11; mean±SD of 2 or mean±SE of 3 experiments for analogues, mean±SE of 11 for hGRF(1-29)NH2

IC50 [nM] | Compound
2.49 ± 0.98 | CC[C@H](C)[C@H](NC(=O)[C@H](C)NC(=O)[C@H](CC(=O)O)NC(=O)[C@@H](C)NC(=O)[C@@H](N)Cc1ccc(O)cc1)C(=O)N[C@@H](Cc1ccccc1)C(=O)N[C@H](C(=O)N[C@@H](CC(N)=O)C(=O)N[C@@H](CO)C(=O)N[C@H](Cc1ccc(O)cc1)C(=O)N[C@@H](CCCNC(=N)N)C(=O)N[C@@H](CCCCN)C(=O)N[C@H](C(=O)N[C@@H](CC(C)C)C(=O)N[C@H](C)C(=O)N[C@@H](CCC(N)=O)C(=O)N[C@@H](CC(C)C)C(=O)N[C@@H](CO)C(=O)N[C@@H](C)C(=O)N[C@@H](CCCNC(=N)N)C(=O)N[C@@H](CCCCN)C(=O)N[C@@H](CCCCN)C(=O)N[C@@H](CC(C)C)C(=O)N[C@@H](CCC(N)=O)C(=O)N[C@@H](CC(=O)O)C(=O)N[C@H](C(=O)N[C@@H](CCSC)C(=O)N[C@@H](CO)C(=O)N[C@@H](CCCNC(=N)N)C(N)=O)[C@@H](C)CC)C(C)C)[C@@H](C)O [D-Ala^2, D-Tyr^10, D-Ala^15, Lys^22] (H-Y[dA]DAIFTNS[dY]RKVL[dA]QLSARKKLQDIMSR-NH2)
0.18 ± 0.08 | CC[C@H](C)[C@H](NC(=O)[C@H](C)NC(=O)[C@H](CC(=O)O)NC(=O)[C@@H](C)NC(=O)[C@@H](N)Cc1ccc(O)cc1)C(=O)N[C@@H](Cc1ccccc1)C(=O)N[C@H](C(=O)N[C@@H](C)C(=O)N[C@@H](CO)C(=O)N[C@@H](Cc1ccc(O)cc1)C(=O)N[C@@H](CCCNC(=N)N)C(=O)N[C@@H](CCCCN)C(=O)N[C@H](C(=O)N[C@@H](CC(C)C)C(=O)N[C@@H](C)C(=O)N[C@@H](CCC(N)=O)C(=O)N[C@@H](CC(C)C)C(=O)N[C@@H](CO)C(=O)N[C@@H](C)C(=O)N[C@@H](CCCNC(=N)N)C(=O)N[C@@H](CCCCN)C(=O)N[C@@H](CCCCN)C(=O)N[C@@H](CC(C)C)C(=O)N[C@@H](CCC(N)=O)C(=O)N[C@@H](CC(=O)O)C(=O)N[C@H](C(=O)N[C@@H](CCSC)C(=O)N[C@@H](CO)C(=O)N[C@@H](CCCNC(=N)N)C(N)=O)[C@@H](C)CC)C(C)C)[C@@H](C)O [D-Ala^2, Ala^8, Ala^15, Lys^22] (H-Y[dA]DAIFTASYRKVLAQLSARKKLQDIMSR-NH2; N-terminus assumed)

Same assay, conditions: Table 11; ratio IC50 of hGRF(1-29)NH2 /IC50 analogue

Relative affinity [%] | Compound
1333 ± 31 | CC[C@H](C)[C@H](NC(=O)[C@H](C)NC(=O)[C@H](CC(=O)O)NC(=O)[C@@H](C)NC(=O)[C@@H](N)Cc1ccc(O)cc1)C(=O)N[C@@H](Cc1ccccc1)C(=O)N[C@H](C(=O)N[C@@H](C)C(=O)N[C@@H](CO)C(=O)N[C@@H](Cc1ccc(O)cc1)C(=O)N[C@@H](CCCNC(=N)N)C(=O)N[C@@H](CCCCN)C(=O)N[C@H](C(=O)N[C@@H](CC(C)C)C(=O)N[C@@H](C)C(=O)N[C@@H](CCC(N)=O)C(=O)N[C@@H](CC(C)C)C(=O)N[C@@H](CO)C(=O)N[C@@H](C)C(=O)N[C@@H](CCCNC(=N)N)C(=O)N[C@@H](CCCCN)C(=O)N[C@@H](CCCCN)C(=O)N[C@@H](CC(C)C)C(=O)N[C@@H](CCC(N)=O)C(=O)N[C@@H](CC(=O)O)C(=O)N[C@H](C(=O)N[C@@H](CCSC)C(=O)N[C@@H](CO)C(=O)N[C@@H](CCCNC(=N)N)C(N)=O)[C@@H](C)CC)C(C)C)[C@@H](C)O [D-Ala^2, Ala^8, Ala^15, Lys^22] (H-Y[dA]DAIFTASYRKVLAQLSARKKLQDIMSR-NH2; N-terminus assumed)
